Results published in PMC12102759 (2025).

B1: SH3BP2 peptide 410-425 (SH3 domain-binding protein 2), 16-mer library wild type / TNKS ANK (TNKS 12 ANK repeats, residues 174-649) (parent complex)
chain 1: LPHLQRSPPDGQSFRS
chain 2: TGVPAVSGALRELLEACRNGDVSRVKRLVDAANVNAKDMAGRKSSPLHFAAGFGRKDVVEHLLQMGANVHARDDGGLIPLHNACSFGHAEVVSLLLCQGADPNARDNWNYTPLHEAAIKGKIDVCIVLLQHGADPNIRNTDGKSALDLADPSAKAVLTGEYKKDELLEAARSGNEEKLMALLTPLNVNCHASDGRKSTPLHLAAGYNRVRIVQLLLQHGADVHAKDKGGLVPLHNACSYGHYEVTELLLKHGACVNAMDLWQFTPLHEAASKNRVEVCSLLLSHGADPTLVNCHGKSAVDMAPTPELRERLTYEFKGHSLLQAAREADLAKVKKTLALEIINFKQPQSHETALHCAVASLHPKRKQVTELLLRKGANVNEKNKDFMTPLHVAAERAHNDVMEVLHKHGAKMNALDTLGQTALHRAALAGHLQTCRLLLSYGSDPSIISLQGFTAAQMGNEAVQQILSESTPIRTSD
B2: AXIN1 peptide 235-250 (Axin-1), 16-mer library wild type / PP2A B56 (PPP2R5A B56 domain, residues 1-486) (parent complex)
chain 1: SGYLPTLNEDEEWKAD
chain 2: not shown

Variants of: B1
Assay: proteomic peptide phage display deep mutational scan (ProP-PD DMS): M13 P8 16-mer library selected against immobilised GST-tagged bait for four days (rounds), NGS of the eluted pools per day and pseudo-replica; bait immobilised on MaxiSorp plates (10 µg), library pre-cleared on GST, 2 h binding at 4 °C, five washes; one round per day, days 1-4; value from days 2 and 3

Row | Variant | screen value
1 | chain 1 P9G | 0.000695 average fractional NGS count over selection days 2 and 3 (reads of this peptide / all reads for the bait, averaged over …
2 | chain 1 L4E | 0.00039 average fractional NGS count over selection days 2 and 3 (reads of this peptide / all reads for the bait, averaged over …
3 | chain 1 L4A | 0.00506 average fractional NGS count over selection days 2 and 3 (reads of this peptide / all reads for the bait, averaged over …
4 | chain 1 L4D | 0.00145 average fractional NGS count over selection days 2 and 3 (reads of this peptide / all reads for the bait, averaged over …
5 | chain 1 S13M | 0.00197 average fractional NGS count over selection days 2 and 3 (reads of this peptide / all reads for the bait, averaged over …
6 | chain 1 S13Y | 0.00204 average fractional NGS count over selection days 2 and 3 (reads of this peptide / all reads for the bait, averaged over …
7 | chain 1 S13Q | 0.00224 average fractional NGS count over selection days 2 and 3 (reads of this peptide / all reads for the bait, averaged over …
8 | chain 1 S13D | 0.00033 average fractional NGS count over selection days 2 and 3 (reads of this peptide / all reads for the bait, averaged over …
9 | chain 1 S13T | 0.00243 average fractional NGS count over selection days 2 and 3 (reads of this peptide / all reads for the bait, averaged over …
10 | chain 1 S13L | 0.00144 average fractional NGS count over selection days 2 and 3 (reads of this peptide / all reads for the bait, averaged over …
11 | chain 1 S13G | 0.00038 average fractional NGS count over selection days 2 and 3 (reads of this peptide / all reads for the bait, averaged over …
12 | chain 1 R15V | 0.00361 average fractional NGS count over selection days 2 and 3 (reads of this peptide / all reads for the bait, averaged over …
13 | chain 1 R15N | 0.000839 average fractional NGS count over selection days 2 and 3 (reads of this peptide / all reads for the bait, averaged over …
14 | chain 1 R15M | 0.00237 average fractional NGS count over selection days 2 and 3 (reads of this peptide / all reads for the bait, averaged over …
15 | chain 1 P2I | 0.000822 average fractional NGS count over selection days 2 and 3 (reads of this peptide / all reads for the bait, averaged over …
16 | chain 1 P2S | 0.000402 average fractional NGS count over selection days 2 and 3 (reads of this peptide / all reads for the bait, averaged over …
17 | chain 1 P2V | 0.00125 average fractional NGS count over selection days 2 and 3 (reads of this peptide / all reads for the bait, averaged over …
18 | chain 1 P2F | 0.00201 average fractional NGS count over selection days 2 and 3 (reads of this peptide / all reads for the bait, averaged over …
19 | chain 1 P2N | 0.000461 average fractional NGS count over selection days 2 and 3 (reads of this peptide / all reads for the bait, averaged over …
20 | chain 1 P2G | 0.000225 average fractional NGS count over selection days 2 and 3 (reads of this peptide / all reads for the bait, averaged over …
21 | chain 1 P2Q | 0.000644 average fractional NGS count over selection days 2 and 3 (reads of this peptide / all reads for the bait, averaged over …
22 | chain 1 Q5K | 0.0003 average fractional NGS count over selection days 2 and 3 (reads of this peptide / all reads for the bait, averaged over …
23 | chain 1 Q5V | 0.001 average fractional NGS count over selection days 2 and 3 (reads of this peptide / all reads for the bait, averaged over …
24 | chain 1 Q5P | 0.000217 average fractional NGS count over selection days 2 and 3 (reads of this peptide / all reads for the bait, averaged over …

Row | Variant | screen value
25 | chain 1 Q5E | 0.000543 average fractional NGS count over selection days 2 and 3 (reads of this peptide / all reads for the bait, averaged over …
26 | chain 1 Q5S | 0.000417 average fractional NGS count over selection days 2 and 3 (reads of this peptide / all reads for the bait, averaged over …
27 | chain 1 Q5D | 0.00109 average fractional NGS count over selection days 2 and 3 (reads of this peptide / all reads for the bait, averaged over …
28 | chain 1 H3T | 0.000309 average fractional NGS count over selection days 2 and 3 (reads of this peptide / all reads for the bait, averaged over …
29 | chain 1 H3Y | 0.00044 average fractional NGS count over selection days 2 and 3 (reads of this peptide / all reads for the bait, averaged over …
30 | chain 1 H3L | 0.000556 average fractional NGS count over selection days 2 and 3 (reads of this peptide / all reads for the bait, averaged over …
31 | chain 1 H3A | 0.000153 average fractional NGS count over selection days 2 and 3 (reads of this peptide / all reads for the bait, averaged over …
32 | chain 1 H3P | 0.000298 average fractional NGS count over selection days 2 and 3 (reads of this peptide / all reads for the bait, averaged over …
33 | chain 1 H3G | 0.000244 average fractional NGS count over selection days 2 and 3 (reads of this peptide / all reads for the bait, averaged over …
34 | chain 1 H3E | 0.000323 average fractional NGS count over selection days 2 and 3 (reads of this peptide / all reads for the bait, averaged over …
35 | chain 1 D10T | 0.000156 average fractional NGS count over selection days 2 and 3 (reads of this peptide / all reads for the bait, averaged over …
36 | chain 1 D10I | 0.000221 average fractional NGS count over selection days 2 and 3 (reads of this peptide / all reads for the bait, averaged over …
37 | chain 1 D10E | 0.00381 average fractional NGS count over selection days 2 and 3 (reads of this peptide / all reads for the bait, averaged over …
38 | chain 1 D10Q | 0.00104 average fractional NGS count over selection days 2 and 3 (reads of this peptide / all reads for the bait, averaged over …
39 | chain 1 F14W | 0.00225 average fractional NGS count over selection days 2 and 3 (reads of this peptide / all reads for the bait, averaged over …
40 | chain 1 F14P | 0.000325 average fractional NGS count over selection days 2 and 3 (reads of this peptide / all reads for the bait, averaged over …
41 | chain 1 F14Y | 0.00865 average fractional NGS count over selection days 2 and 3 (reads of this peptide / all reads for the bait, averaged over …
42 | chain 1 F14V | 0.000585 average fractional NGS count over selection days 2 and 3 (reads of this peptide / all reads for the bait, averaged over …
43 | chain 1 S7T | 0.00126 average fractional NGS count over selection days 2 and 3 (reads of this peptide / all reads for the bait, averaged over …
44 | chain 1 S7D | 0.000477 average fractional NGS count over selection days 2 and 3 (reads of this peptide / all reads for the bait, averaged over …
45 | chain 1 S7K | 0.00104 average fractional NGS count over selection days 2 and 3 (reads of this peptide / all reads for the bait, averaged over …
46 | chain 1 S7P | 0.00153 average fractional NGS count over selection days 2 and 3 (reads of this peptide / all reads for the bait, averaged over …
47 | chain 1 S7I | 0.000719 average fractional NGS count over selection days 2 and 3 (reads of this peptide / all reads for the bait, averaged over …
48 | chain 1 S7L | 0.00604 average fractional NGS count over selection days 2 and 3 (reads of this peptide / all reads for the bait, averaged over …

Row | Variant | screen value
49 | chain 1 S7E | 0.00893 average fractional NGS count over selection days 2 and 3 (reads of this peptide / all reads for the bait, averaged over …
50 | chain 1 L1Q | 0.00289 average fractional NGS count over selection days 2 and 3 (reads of this peptide / all reads for the bait, averaged over …
51 | chain 1 L1R | 0.000257 average fractional NGS count over selection days 2 and 3 (reads of this peptide / all reads for the bait, averaged over …
52 | chain 1 L1G | 0.000775 average fractional NGS count over selection days 2 and 3 (reads of this peptide / all reads for the bait, averaged over …
53 | chain 1 L1W | 0.000782 average fractional NGS count over selection days 2 and 3 (reads of this peptide / all reads for the bait, averaged over …
54 | chain 1 L1M | 0.00036 average fractional NGS count over selection days 2 and 3 (reads of this peptide / all reads for the bait, averaged over …
55 | chain 1 L1T | 0.0011 average fractional NGS count over selection days 2 and 3 (reads of this peptide / all reads for the bait, averaged over …
56 | chain 1 L1P | 0.000357 average fractional NGS count over selection days 2 and 3 (reads of this peptide / all reads for the bait, averaged over …
57 | chain 1 P8E | 0.00169 average fractional NGS count over selection days 2 and 3 (reads of this peptide / all reads for the bait, averaged over …
58 | chain 1 P8Q | 0.00268 average fractional NGS count over selection days 2 and 3 (reads of this peptide / all reads for the bait, averaged over …
59 | chain 1 P8L | 0.00187 average fractional NGS count over selection days 2 and 3 (reads of this peptide / all reads for the bait, averaged over …
60 | chain 1 P8I | 0.00231 average fractional NGS count over selection days 2 and 3 (reads of this peptide / all reads for the bait, averaged over …
61 | chain 1 P8M | 0.00437 average fractional NGS count over selection days 2 and 3 (reads of this peptide / all reads for the bait, averaged over …
62 | chain 1 P8A | 0.00935 average fractional NGS count over selection days 2 and 3 (reads of this peptide / all reads for the bait, averaged over …
63 | chain 1 P8K | 0.000693 average fractional NGS count over selection days 2 and 3 (reads of this peptide / all reads for the bait, averaged over …
64 | chain 1 P8Y | 0.000667 average fractional NGS count over selection days 2 and 3 (reads of this peptide / all reads for the bait, averaged over …
65 | chain 1 Q12L | 0.00741 average fractional NGS count over selection days 2 and 3 (reads of this peptide / all reads for the bait, averaged over …
66 | chain 1 Q12A | 0.00503 average fractional NGS count over selection days 2 and 3 (reads of this peptide / all reads for the bait, averaged over …
67 | chain 1 Q12I | 0.000382 average fractional NGS count over selection days 2 and 3 (reads of this peptide / all reads for the bait, averaged over …
68 | chain 1 Q12N | 0.00115 average fractional NGS count over selection days 2 and 3 (reads of this peptide / all reads for the bait, averaged over …
69 | chain 1 Q12H | 0.0118 average fractional NGS count over selection days 2 and 3 (reads of this peptide / all reads for the bait, averaged over …
70 | chain 1 Q12K | 0.000431 average fractional NGS count over selection days 2 and 3 (reads of this peptide / all reads for the bait, averaged over …
71 | chain 1 Q12Y | 0.000794 average fractional NGS count over selection days 2 and 3 (reads of this peptide / all reads for the bait, averaged over …

Variants of: B2
Assay: as above

Row | Variant | screen value
72 | chain 1 D16W | 0.000506 average fractional NGS count over selection days 2 and 3 (reads of this peptide / all reads for the bait, averaged over …
73 | chain 1 D16I | 0.000497 average fractional NGS count over selection days 2 and 3 (reads of this peptide / all reads for the bait, averaged over …
74 | chain 1 D16P | 0.000234 average fractional NGS count over selection days 2 and 3 (reads of this peptide / all reads for the bait, averaged over …
75 | chain 1 D16Y | 0.00243 average fractional NGS count over selection days 2 and 3 (reads of this peptide / all reads for the bait, averaged over …
